Measurements from article PMC8769072, “Proteome‐scale mapping of binding sites in the unstructured regions of the human proteome” (Molecular Systems Biology, 2022).
Where no end group is shown, it is not given here. [ ]: non-standard residue; d: D form. pY = N[C@@H](Cc1ccc(OP(=O)(O)O)cc1)C(=O)O; pT = C[C@@H](OP(=O)(O)O)[C@H](N)C(=O)O; pS = N[C@@H](COP(=O)(O)O)C(=O)O

B1: NCOR1 1240-1255 peptide, pS1242 (peptide)
peptide: Ac-EI[pS]LKRSYESVEGNIK-NH2
SMILES: CC[C@H](C)[C@H](NC(=O)[C@H](CC(N)=O)NC(=O)CNC(=O)[C@H](CCC(=O)O)NC(=O)[C@@H](NC(=O)[C@H](CO)NC(=O)[C@H](CCC(=O)O)NC(=O)[C@H](Cc1ccc(O)cc1)NC(=O)[C@H](CO)NC(=O)[C@H](CCCNC(=N)N)NC(=O)[C@H](CCCCN)NC(=O)[C@H](CC(C)C)NC(=O)[C@H](COP(=O)(O)O)NC(=O)[C@@H](NC(=O)[C@H](CCC(=O)O)NC(C)=O)[C@@H](C)CC)C(C)C)C(=O)N[C@@H](CCCCN)C(N)=O
B2: NCOR1 1240-1255 peptide, pY1247 (peptide)
peptide: Ac-EISLKRS[pY]ESVEGNIK-NH2
SMILES: CC[C@H](C)[C@H](NC(=O)[C@H](CC(N)=O)NC(=O)CNC(=O)[C@H](CCC(=O)O)NC(=O)[C@@H](NC(=O)[C@H](CO)NC(=O)[C@H](CCC(=O)O)NC(=O)[C@H](Cc1ccc(OP(=O)(O)O)cc1)NC(=O)[C@H](CO)NC(=O)[C@H](CCCNC(=N)N)NC(=O)[C@H](CCCCN)NC(=O)[C@H](CC(C)C)NC(=O)[C@H](CO)NC(=O)[C@@H](NC(=O)[C@H](CCC(=O)O)NC(C)=O)[C@@H](C)CC)C(C)C)C(=O)N[C@@H](CCCCN)C(N)=O
B3: NCOR1 1240-1255 peptide, pS1246 (peptide)
peptide: Ac-EISLKR[pS]YESVEGNIK-NH2
SMILES: CC[C@H](C)[C@H](NC(=O)[C@H](CC(N)=O)NC(=O)CNC(=O)[C@H](CCC(=O)O)NC(=O)[C@@H](NC(=O)[C@H](CO)NC(=O)[C@H](CCC(=O)O)NC(=O)[C@H](Cc1ccc(O)cc1)NC(=O)[C@H](COP(=O)(O)O)NC(=O)[C@H](CCCNC(=N)N)NC(=O)[C@H](CCCCN)NC(=O)[C@H](CC(C)C)NC(=O)[C@H](CO)NC(=O)[C@@H](NC(=O)[C@H](CCC(=O)O)NC(C)=O)[C@@H](C)CC)C(C)C)C(=O)N[C@@H](CCCCN)C(N)=O

target: MDM2 SWIB (E3 ubiquitin-protein ligase MDM2, SWIB domain) (human) (UniProt Q00987); assay: fluorescence polarisation; competition: unlabelled peptide in serial dilution against the protein domain (master mix at four times the KD) with its FITC-labelled probe peptide; 50 mM KPO4 or NaPO4 pH 7.5; Ki calculated from IC50
Sequence (Q00987 whole entry, the tested form may be a part): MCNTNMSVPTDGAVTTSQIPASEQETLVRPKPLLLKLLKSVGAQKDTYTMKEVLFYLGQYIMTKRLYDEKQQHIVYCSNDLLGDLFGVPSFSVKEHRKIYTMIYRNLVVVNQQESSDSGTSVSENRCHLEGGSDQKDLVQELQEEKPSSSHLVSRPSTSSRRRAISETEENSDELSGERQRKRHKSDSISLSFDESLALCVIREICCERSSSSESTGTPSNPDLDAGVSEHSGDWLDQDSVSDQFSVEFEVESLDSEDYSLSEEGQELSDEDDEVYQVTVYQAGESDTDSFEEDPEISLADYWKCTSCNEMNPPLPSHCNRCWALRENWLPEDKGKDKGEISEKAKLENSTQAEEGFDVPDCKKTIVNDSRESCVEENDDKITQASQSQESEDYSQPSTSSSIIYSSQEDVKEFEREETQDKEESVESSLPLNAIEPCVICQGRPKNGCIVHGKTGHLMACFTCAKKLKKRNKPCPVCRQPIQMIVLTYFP

| IC50 [µM] | Ki [µM] | Binder |
| --- | --- | --- |
| 9 | – | THFAELWGHLDHTMFF [RNF115 69-84 peptide] |
| 73 | 1.76 | TPEDDRSFQTVWATVF [KIAA1671 600-615 peptide] |
| 130 | – | GFEAQWAALENKSKQR [NUMB 616-630 peptide with an added N-terminal G] |

target: CLTC (clathrin heavy chain 1, Clathrin-propeller domain) (human) (UniProt Q00610); assay: as above

| IC50 [µM] | Ki [µM] | Binder |
| --- | --- | --- |
| 220 | 100 | Ac-YVSGNLIDLCGNQGLP [MITF 256-271 peptide, Y265C] |
| 150 | 63 | Ac-YVSGNLIDLYGNQGLP [MITF 256-271 peptide] |
| 97 | 39 | Ac-LIDLPLIDFCDTPEAHY [GTSE1 645-660 peptide] |
| 87 | 34 | Ac-LIDLPLIDFCD[pT]PEAHY [GTSE1 645-660 peptide, phosphothreonine] |

target: TLN1 PTB (talin-1, phosphotyrosine binding-like domain) (human) (UniProt Q9Y490); assay: as above
Sequence (Q9Y490 whole entry, the tested form may be a part): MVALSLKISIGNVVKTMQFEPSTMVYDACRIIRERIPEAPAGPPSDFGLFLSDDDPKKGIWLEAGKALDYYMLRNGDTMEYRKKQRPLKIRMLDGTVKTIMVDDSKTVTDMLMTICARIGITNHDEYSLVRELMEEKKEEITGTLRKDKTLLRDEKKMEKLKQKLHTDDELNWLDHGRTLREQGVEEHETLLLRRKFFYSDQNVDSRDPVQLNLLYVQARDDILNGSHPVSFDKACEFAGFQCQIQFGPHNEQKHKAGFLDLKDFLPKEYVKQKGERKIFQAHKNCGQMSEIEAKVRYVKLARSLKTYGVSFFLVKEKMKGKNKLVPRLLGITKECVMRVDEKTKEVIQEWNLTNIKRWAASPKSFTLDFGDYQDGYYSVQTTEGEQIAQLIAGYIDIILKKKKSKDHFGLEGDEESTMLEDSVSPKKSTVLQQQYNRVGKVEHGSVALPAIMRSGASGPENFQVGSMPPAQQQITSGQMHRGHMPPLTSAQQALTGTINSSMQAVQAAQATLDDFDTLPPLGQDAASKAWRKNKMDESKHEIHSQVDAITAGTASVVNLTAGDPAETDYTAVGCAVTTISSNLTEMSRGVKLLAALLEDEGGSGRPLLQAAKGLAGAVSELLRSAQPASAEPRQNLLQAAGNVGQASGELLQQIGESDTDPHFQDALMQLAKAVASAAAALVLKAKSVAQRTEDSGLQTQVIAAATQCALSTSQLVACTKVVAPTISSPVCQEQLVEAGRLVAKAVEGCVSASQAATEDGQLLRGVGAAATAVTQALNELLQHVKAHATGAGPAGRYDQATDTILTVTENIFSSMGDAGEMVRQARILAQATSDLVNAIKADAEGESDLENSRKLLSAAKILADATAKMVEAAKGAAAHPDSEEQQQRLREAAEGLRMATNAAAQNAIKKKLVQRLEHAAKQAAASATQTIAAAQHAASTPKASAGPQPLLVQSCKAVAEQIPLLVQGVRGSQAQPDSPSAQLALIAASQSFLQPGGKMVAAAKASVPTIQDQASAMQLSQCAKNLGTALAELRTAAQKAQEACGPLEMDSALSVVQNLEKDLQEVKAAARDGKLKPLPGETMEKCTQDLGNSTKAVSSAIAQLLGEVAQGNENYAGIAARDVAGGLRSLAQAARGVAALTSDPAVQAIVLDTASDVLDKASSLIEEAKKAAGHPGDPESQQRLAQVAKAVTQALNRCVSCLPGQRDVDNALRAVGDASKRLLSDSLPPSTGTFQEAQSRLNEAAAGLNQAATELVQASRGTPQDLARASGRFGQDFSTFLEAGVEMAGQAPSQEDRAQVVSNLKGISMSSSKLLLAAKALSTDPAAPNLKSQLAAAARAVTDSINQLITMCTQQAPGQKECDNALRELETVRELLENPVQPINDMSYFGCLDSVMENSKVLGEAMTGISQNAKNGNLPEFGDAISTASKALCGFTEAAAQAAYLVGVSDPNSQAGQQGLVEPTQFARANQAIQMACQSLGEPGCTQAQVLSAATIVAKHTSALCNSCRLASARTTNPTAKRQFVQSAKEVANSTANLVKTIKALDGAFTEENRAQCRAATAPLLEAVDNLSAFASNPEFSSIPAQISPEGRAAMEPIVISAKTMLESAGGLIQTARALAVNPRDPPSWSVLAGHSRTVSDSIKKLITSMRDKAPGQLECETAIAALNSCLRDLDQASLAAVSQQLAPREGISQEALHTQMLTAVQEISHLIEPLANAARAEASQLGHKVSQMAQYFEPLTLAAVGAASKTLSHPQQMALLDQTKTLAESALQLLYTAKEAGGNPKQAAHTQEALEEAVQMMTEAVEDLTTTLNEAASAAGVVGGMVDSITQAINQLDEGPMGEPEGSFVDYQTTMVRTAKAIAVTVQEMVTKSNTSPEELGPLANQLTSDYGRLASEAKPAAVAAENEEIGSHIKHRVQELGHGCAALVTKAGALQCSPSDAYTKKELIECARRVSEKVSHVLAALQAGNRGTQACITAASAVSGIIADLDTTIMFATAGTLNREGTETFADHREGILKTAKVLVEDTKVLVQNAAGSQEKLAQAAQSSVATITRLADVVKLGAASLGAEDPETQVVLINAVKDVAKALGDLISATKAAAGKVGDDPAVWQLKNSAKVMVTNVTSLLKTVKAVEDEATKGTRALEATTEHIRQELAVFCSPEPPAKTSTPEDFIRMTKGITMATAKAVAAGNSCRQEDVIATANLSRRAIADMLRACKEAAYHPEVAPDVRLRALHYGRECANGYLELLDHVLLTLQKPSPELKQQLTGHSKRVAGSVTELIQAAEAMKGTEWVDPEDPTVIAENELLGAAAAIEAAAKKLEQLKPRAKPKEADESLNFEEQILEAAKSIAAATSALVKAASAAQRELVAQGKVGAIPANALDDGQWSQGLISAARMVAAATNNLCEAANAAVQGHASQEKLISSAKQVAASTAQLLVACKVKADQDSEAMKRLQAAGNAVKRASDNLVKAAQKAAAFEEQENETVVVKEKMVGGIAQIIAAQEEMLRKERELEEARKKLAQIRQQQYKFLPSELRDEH

| IC50 [µM] | Ki [µM] | Binder |
| --- | --- | --- |
| 15 | 4.9 | DLIFTDSKLYIPLE-NH2 [TPTE 112-125 peptide] |
| 1430 | 480 | AKWDTANNPLYKEATS-NH2 [Integrin beta-3 763-778 peptide] |
| 0.42 | 0.066 | FPTDERSWVYSPLHYS-NH2 [PIP5K1C 640-655 peptide, unlabelled] |
| 62 | 20 | VGPLTPLWTYPATAAG-NH2 [NYAP1 542-557 peptide] |

target: KPNB1 HEAT (importin subunit beta-1, HEAT repeat) (human) (UniProt Q14974); assay: as above
Sequence (Q14974 whole entry): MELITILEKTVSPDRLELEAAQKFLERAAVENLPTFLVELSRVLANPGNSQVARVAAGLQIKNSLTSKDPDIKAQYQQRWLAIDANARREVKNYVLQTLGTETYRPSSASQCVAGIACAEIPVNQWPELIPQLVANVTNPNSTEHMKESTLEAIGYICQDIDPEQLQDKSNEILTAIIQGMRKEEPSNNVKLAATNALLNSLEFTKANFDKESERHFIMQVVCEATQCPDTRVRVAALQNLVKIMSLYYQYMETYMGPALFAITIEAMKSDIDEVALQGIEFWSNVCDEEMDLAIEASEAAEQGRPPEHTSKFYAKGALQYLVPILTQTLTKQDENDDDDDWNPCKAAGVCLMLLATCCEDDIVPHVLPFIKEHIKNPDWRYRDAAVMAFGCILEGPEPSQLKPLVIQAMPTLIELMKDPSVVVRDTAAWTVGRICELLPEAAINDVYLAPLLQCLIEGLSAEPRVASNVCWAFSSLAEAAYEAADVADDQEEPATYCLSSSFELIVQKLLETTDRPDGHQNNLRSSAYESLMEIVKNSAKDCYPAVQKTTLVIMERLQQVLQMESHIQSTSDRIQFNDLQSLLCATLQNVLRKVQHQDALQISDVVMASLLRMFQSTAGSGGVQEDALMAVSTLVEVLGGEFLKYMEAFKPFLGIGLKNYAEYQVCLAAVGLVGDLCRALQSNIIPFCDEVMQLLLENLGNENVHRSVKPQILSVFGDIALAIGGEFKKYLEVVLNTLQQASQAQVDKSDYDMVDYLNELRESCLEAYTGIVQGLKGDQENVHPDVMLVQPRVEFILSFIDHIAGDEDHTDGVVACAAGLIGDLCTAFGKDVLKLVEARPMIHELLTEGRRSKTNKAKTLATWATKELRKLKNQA

| IC50 [µM] | Ki [µM] | Binder |
| --- | --- | --- |
| 2200 | – | Ac-AYAPPVFVFQKDKGQK-NH2 [RANBP3 11-26 peptide] |
| 49 | 11 | Ac-NPPVATFVFGQSSNPY-NH2 [NUP153 1220-1234 peptide with an extra C-terminal Y] |

target: KEAP1 Kelch (kelch-like ECH-associated protein 1, Kelch domain) (human) (UniProt Q14145); assay: as above
Sequence (Q14145 whole entry, the tested form may be a part): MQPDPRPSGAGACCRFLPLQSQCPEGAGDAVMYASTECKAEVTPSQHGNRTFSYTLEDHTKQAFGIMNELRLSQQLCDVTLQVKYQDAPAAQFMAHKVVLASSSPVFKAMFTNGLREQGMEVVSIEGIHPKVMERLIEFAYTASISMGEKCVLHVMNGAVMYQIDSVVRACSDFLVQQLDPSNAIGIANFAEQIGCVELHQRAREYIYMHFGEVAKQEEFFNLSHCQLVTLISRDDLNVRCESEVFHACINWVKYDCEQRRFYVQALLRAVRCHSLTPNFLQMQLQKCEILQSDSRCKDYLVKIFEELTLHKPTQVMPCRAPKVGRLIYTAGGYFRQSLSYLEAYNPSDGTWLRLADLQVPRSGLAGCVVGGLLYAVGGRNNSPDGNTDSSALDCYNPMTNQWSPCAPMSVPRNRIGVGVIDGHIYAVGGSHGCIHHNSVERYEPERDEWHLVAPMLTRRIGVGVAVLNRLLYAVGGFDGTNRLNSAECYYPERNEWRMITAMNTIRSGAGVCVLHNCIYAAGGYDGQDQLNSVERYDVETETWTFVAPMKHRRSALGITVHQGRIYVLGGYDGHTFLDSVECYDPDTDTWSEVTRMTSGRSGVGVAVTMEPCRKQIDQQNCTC

| IC50 [µM] | Ki [µM] | Binder |
| --- | --- | --- |
| 44 | 11 | GFDAVTGEFTGMPEQW-NH2 [PAK1 88-103 peptide] |
| 2540 | 611 | Ac-YDEEKGEFLPIQPAQH-NH2 [NFE2L2 77-91 peptide with an extra N-terminal Y, T80K] |
| 3 | – | Ac-LIYVDKENGEPGTRVV-NH2 [PTTG1 4-19 peptide] |
| 1650 | 397 | Ac-YDEKTGEFLPIQPAQH-NH2 [NFE2L2 77-91 peptide with an extra N-terminal Y, E79K] |
| 6.1 | 1.5 | IDPSTGERFPVTDAVN-NH2 [PLEC 4459-4474 peptide] |
| 80 | 19 | YDPVTGEWKSLAKLPE-NH2 [KLHL24 335-350 peptide] |
| 0.31 | 0.071 | Ac-YDEETGEFLPIQPAQH-NH2 [NFE2L2 77-91 peptide with an extra N-terminal Y, wild type] |
| 1.5 | 0.49 | Ac-GIIDPSTGERFPVTDY-NH2 [PLEC 4457-4471 peptide with an extra C-terminal Y, wild type] |

target: KPNA4 ARM (importin subunit alpha-3, armadillo repeat domain) (human) (UniProt O00629); assay: fluorescence polarisation; competition: unlabelled peptide in serial dilution against KPNA4 ARM (master mix at four times the KD) with the probe FITC-Myc(320-328), probe of the major pocket; 50 mM KPO4 pH 7.5; Ki calculated from IC50
Sequence (O00629 whole entry, the tested form may be a part): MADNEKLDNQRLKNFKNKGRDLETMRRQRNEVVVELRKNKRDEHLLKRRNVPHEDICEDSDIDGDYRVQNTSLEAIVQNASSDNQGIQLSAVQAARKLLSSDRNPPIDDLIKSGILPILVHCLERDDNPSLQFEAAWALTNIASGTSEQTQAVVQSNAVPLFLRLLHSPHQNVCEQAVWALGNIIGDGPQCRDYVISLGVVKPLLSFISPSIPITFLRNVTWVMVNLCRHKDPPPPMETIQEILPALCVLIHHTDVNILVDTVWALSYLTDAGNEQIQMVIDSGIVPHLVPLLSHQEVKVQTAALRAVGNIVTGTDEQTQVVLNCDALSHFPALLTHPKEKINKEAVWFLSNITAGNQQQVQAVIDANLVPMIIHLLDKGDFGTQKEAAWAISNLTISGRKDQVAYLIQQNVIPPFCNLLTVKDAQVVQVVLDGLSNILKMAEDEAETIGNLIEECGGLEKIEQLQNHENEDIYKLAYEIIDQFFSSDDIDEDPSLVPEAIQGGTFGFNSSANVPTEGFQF

| IC50 [µM] | Ki [µM] | Binder |
| --- | --- | --- |
| 2.3 | 1.5 | IPEKKQRLEEATTICL-NH2 [AFF2 864-879 peptide] |
| 0.13 | 0.075 | EDSIEPPHKRLCLSSE-NH2 [DMTF1 44-59 peptide] |
| 0.24 | 0.14 | VEPETKRLKLAASEDH-NH2 [ZRANB3 571-586 peptide] |
| 98 | 63 | Ac-YKCRRQRQDQTLELVGL-NH2 [NKX2-5 192-207 peptide, K194R] |
| 22 | 14 | DLKRRLDSITSSQSSA-NH2 [KDR 958-973 peptide] |
| 0.076 | 0.038 | DHQFPAKRPRLSEPQG-NH2 [HJURP 675-690 peptide] |
| 1.9 | 1.2 | ERENPSKRSRIERDID-NH2 [CTDSPL2 64-79 peptide] |
| 2.2 | 6.8 | Ac-YKCKRQRQDQTLELVGL-NH2 [NKX2-5 192-207 peptide, wild type] |

target: KPNA4 ARM (importin subunit alpha-3, armadillo repeat domain) (human) (UniProt O00629); assay: fluorescence polarisation; competition: unlabelled peptide in serial dilution against KPNA4 ARM (master mix at four times the KD) with the probe FITC-NCOR2(1307-1322), probe of the minor pocket; 50 mM KPO4 pH 7.5; Ki calculated from IC50

| IC50 [µM] | Ki [µM] | Binder |
| --- | --- | --- |
| 31 | 10 | B1 |
| 11 | 3.6 | Ac-EISLKRSYESVEGNIK-NH2 [NCOR1 1240-1255 peptide, unphosphorylated] |
| 21 | 6.8 | B2 |
| 3800 | 1420 | IPEKKQRLEEATTICL-NH2 [AFF2 864-879 peptide] |
| 0.12 | – | PKRTYDMMEGRVGRAI-NH2 [NCOR2 1307-1322 peptide, unlabelled] |
| 36 | 13 | ELKRKLEQEQKLVEVL-NH2 [MKL2 572-587 peptide] |
| 3.6 | 1.2 | PFKRPHSTISDSSTSS-NH2 [PLEKHG4B 1183-1198 peptide] |
| 24 | 8.9 | DLKRRLDSITSSQSSA-NH2 [KDR 958-973 peptide] |
| 170 | 63 | DHQFPAKRPRLSEPQG-NH2 [HJURP 675-690 peptide] |
| 240 | 81 | B3 |
| 0.41 | 0.047 | GKKRTFDETVSTYVPL-NH2 [TPX2 312-327 peptide] |
| 0.43 | 0.054 | GVKRTYSEVYPGQQYL-NH2 [ZMIZ2 264-279 peptide] |
| 2.4 | 0.77 | STMKRKHDEIQRSLPV-NH2 [ZBED9 651-666 peptide] |
| 1.3 | 0.38 | SLAPVKRTYEQMEFPL-NH2 [ADNP 711-726 peptide] |
| 0.5 | 0.093 | AGVKRSAAEMYGSVTE-NH2 [HNRNPC 95-110 peptide] |
